Measured values published in patent publication US20140044674A1 (Hoffmann-La Roche, published 2014).

Experiments:
[1] = target: T1, His-tagged mouse FAP ECD (mouse, UniProt P97321 27-761); experiment: SPR ProteOn XPR36, 25 C; His-tagged FAP captured by anti-penta-His IgG, construct as analyte
T1 construct: also called mu FAP; murine FAP
Description: (§1) To determine the affinities to FAP, the target protein was captured via its H6-tag by a covalently immobilized anti-H6 antibody (FIG. 9A). Briefly, anti-penta His IgG (Qiagen #34660, mouse monoclonal antibody) was immobilized at high levels (up to ˜5.000 RU) at 30 μ/min onto separate vertical channels of a GLM chip by simultaneously activating all channels for 5 min with a freshly prepared mixture of 1-ethyl-3-(3-dimethylaminopropyl)-carboiimide (EDC) and N-hydroxysuccinimide (sNHS), subsequently injecting 15 μg/ml anti-penta His IgG in 10 mM sodium acetate buffer pH 4.5 for 180 sec. Channels were blocked using a 5-min injection of ethanolamine. H6-tagged FAP from different species (see SEQ ID NOs 81, 83 and 85) was captured from a 5 μg/ml dilution in running buffer along the vertical channels for 60 s at 30 μl/min to achieve ligand densities between ˜250 and 600 RU. In a one-shot kinetic assay set-up (OSK), antibody-IL-10 fusion constructs were injected as analytes along the horizontal channels in a five-fold dilution series ranging from 50 to 0.08 nM at 100 μl/min. Association phase was recorded for 180 s, dissociation phase for 600 s. […] Running buffer (PBST) was injected along the sixth channel to provide an “in-line” blank for referencing. Association rates (kₒₙ) and dissociation rates (koff) were calculated using a simple 1:1 Langmuir binding model (ProteOn Manager software version 2.1) by simultaneously fitting the association and dissociation sensorgrams. The equilibrium dissociation constant (KD) was calculated as the ratio koff/kₒₙ.

[2] = target: T2, His-tagged cynomolgus FAP ECD (cynomolgus, UniProt Q12884 27-760 (human entry)); experiment: as above
T2 construct: also called cyno FAP
Description: as §1

[3] = target: T3, His-tagged human FAP ECD (human, UniProt Q12884 27-760); experiment: as above
T3 construct: also called hu FAP
Description: as §1

[4] = target: T4, human IL-10R1 ECD fused to a human Fc region, biotinylated (human, biotinylated (site not stated)); experiment: SPR ProteOn XPR36, 25 C; biotinylated hu IL-10R1-Fc on neutravidin chip, construct as analyte
T4 construct: Captured on a neutravidin chip; also called hu IL-10R1; IL-10 receptor 1
Description: To measure the interaction between the antibody-IL-10 fusion constructs and the human IL-10R1, an NLC chip was used for immobilization of the biotinylated receptor (FIG. 9B). Between 400 and 1600 RU of human IL-10R1 (see SEQ ID NO: 87) were captured on the neutravidin-derivatized chip matrix along vertical channels at a concentration of 10 μg/ml and a flow rate of […] for varying contact times. Binding to biotinylated human IL10R1 was measured at six different analyte concentrations (50, 10, 2, 0.4, 0.08, 0 nM) by injections in horizontal orientation at 100 μl/min, recording the association rate for 180 s, the dissociation rate for 600 s. Running buffer (PBST) was injected along the sixth channel to provide an “in-line” blank for referencing. Association rates (kₒₙ) and dissociation rates (koff) were calculated using a simple 1:1 Langmuir binding model (ProteOn Manager software version 2.1) by simultaneously fitting the association and dissociation sensorgrams. The equilibrium dissociation constant (KD) was calculated as the ratio koff/kₒₙ. As human IL-10R1 could not be regenerated without a loss of activity, the two subsequent steps of ligand capture and analyte injection were performed channel per channel using a freshly immobilized sensorchip surface for every interaction.

Row | Kd [1] [nM] | koff [1] [s⁻¹] | kon [1] [M⁻¹ s⁻¹] | Kd [2] [nM] | koff [2] [s⁻¹] | kon [2] [M⁻¹ s⁻¹] | Kd [3] [nM] | koff [3] [s⁻¹] | kon [3] [M⁻¹ s⁻¹] | Kd [4] [nM] | koff [4] [s⁻¹] | kon [4] [M⁻¹ s⁻¹] | Binder
1 | 0.0234 | 6.27e-05 | 2.68e+06 | 0.0175 | 7.27e-05 | 4.16e+06 | 0.00105 | 5.72e-06 | 5.47e+06 | 0.0212 | 4.57e-05 | 2.15e+06 | 4B9 Fab-IL-10 (other, also called Fab-IL-10 (clone 4B9)) heavy: EVQLLESGGGLVQPGGSLRLSCAASGFTFSSYAMSWVRQAPGKGLEWVSAIIGSGASTYYADSVKGRFTISRDNSKNTLYLQMNSLRAEDTAVYYCAKGWFGGFNYWGQGTLVTVSSASTKGPSVFPLAPSSKSTSGGTAALGCLVKDYFPEPVTVSWNSGALTSGVHTFPAVLQSSGLYSLSSVVTVPSSSLGTQTYICNVNHKPSNTKVDKKVEPKSCDGGGGSGGGGSGGGGSSPGQGTQSENSCTHFPGNLPNMLRDLRDAFSRVKTFFQMKDQLDNLLLKESLLEDFKGYLGCQALSEMIQFYLEEVMPQAENQDPDIKAHVNSLGENLKTLRLRLRRCHRFLPCENKSKAVEQVKNAFNKLQEKGIYKAMSEFDIFINYIEAYMTMKIRN light: EIVLTQSPGTLSLSPGERATLSCRASQSVTSSYLAWYQQKPGQAPRLLINVGSRRATGIPDRFSGSGSGTDFTLTISRLEPEDFAVYYCQQGIMLPPTFGQGTKVEIKRTVAAPSVFIFPPSDEQLKSGTASVVCLLNNFYPREAKVQWKVDNALQSGNSQESVTEQDSKDSTYSLSSTLTLSKADYEKHKVYACEVTHQGLSSPVTKSFNRGEC
2 | 0.0303 | 7.4e-05 | 2.45e+06 | 0.00679 | 3.35e-05 | 4.93e+06 | 0.00656 | 3.11e-05 | 4.74e+06 | 0.0553 | 9.58e-05 | 1.73e+06 | 4B9 Fab-scIL-10-Fab (other, also called Fab-scIL-10-Fab (clone 4B9)) heavy: EVQLLESGGGLVQPGGSLRLSCAASGFTFSSYAMSWVRQAPGKGLEWVSAIIGSGASTYYADSVKGRFTISRDNSKNTLYLQMNSLRAEDTAVYYCAKGWFGGFNYWGQGTLVTVSSASTKGPSVFPLAPSSKSTSGGTAALGCLVKDYFPEPVTVSWNSGALTSGVHTFPAVLQSSGLYSLSSVVTVPSSSLGTQTYICNVNHKPSNTKVDKKVEPKSCDGGGGSGGGGSGGGGSSPGQGTQSENSCTHFPGNLPNMLRDLRDAFSRVKTFFQMKDQLDNLLLKESLLEDFKGYLGCQALSEMIQFYLEEVMPQAENQDPDIKAHVNSLGENLKTLRLRLRRCHRFLPCENKSKAVEQVKNAFNKLQEKGIYKAMSEFDIFINYIEAYMTMKIRNGGGGSGGGGSGGGGSGGGGSSPGQGTQSENSCTHFPGNLPNMLRDLRDAFSRVKTFFQMKDQLDNLLLKESLLEDFKGYLGCQALSEMIQFYLEEVMPQAENQDPDIKAHVNSLGENLKTLRLRLRRCHRFLPCENKSKAVEQVKNAFNKLQEKGIYKAMSEFDIFINYIEAYMTMKIRNGGGGSGGGGSGGGGSEVQLLESGGGLVQPGGSLRLSCAASGFTFSSYAMSWVRQAPGKGLEWVSAIIGSGASTYYADSVKGRFTISRDNSKNTLYLQMNSLRAEDTAVYYCAKGWFGGFNYWGQGTLVTVSSASTKGPSVFPLAPSSKSTSGGTAALGCLVKDYFPEPVTVSWNSGALTSGVHTFPAVLQSSGLYSLSSVVTVPSSSLGTQTYICNVNHKPSNTKVDKKVEPKSCD light: EIVLTQSPGTLSLSPGERATLSCRASQSVTSSYLAWYQQKPGQAPRLLINVGSRRATGIPDRFSGSGSGTDFTLTISRLEPEDFAVYYCQQGIMLPPTFGQGTKVEIKRTVAAPSVFIFPPSDEQLKSGTASVVCLLNNFYPREAKVQWKVDNALQSGNSQESVTEQDSKDSTYSLSSTLTLSKADYEKHKVYACEVTHQGLSSPVTKSFNRGEC
